Test results from patent US20200283521A1 (GRANULAR THERAPEUTICS, published 2020).

Experiments:
hLTBR-Fc = target: T1, hLTBR-Fc (human, UniProt P36941); test: direct ELISA on coated protein, IgG1
T1 construct: Fc fusion; member of the panel m9

hTWEAK-Fc = target: T2, hTWEAK-Fc (human, UniProt O43508); test: direct ELISA on coated protein, IgG1
T2 construct: Fc fusion; member of the panel m9
T2 sequence (looked up): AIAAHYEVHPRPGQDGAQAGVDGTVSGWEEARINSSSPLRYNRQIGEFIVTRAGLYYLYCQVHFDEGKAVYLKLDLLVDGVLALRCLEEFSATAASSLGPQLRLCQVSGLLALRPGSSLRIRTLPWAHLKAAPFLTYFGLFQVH

hDR3-Fc = target: T3, hDR3-Fc (human, UniProt Q93038); test: direct ELISA on coated protein, IgG1
T3 construct: Fc fusion; member of the panel m9
T3 sequence (looked up): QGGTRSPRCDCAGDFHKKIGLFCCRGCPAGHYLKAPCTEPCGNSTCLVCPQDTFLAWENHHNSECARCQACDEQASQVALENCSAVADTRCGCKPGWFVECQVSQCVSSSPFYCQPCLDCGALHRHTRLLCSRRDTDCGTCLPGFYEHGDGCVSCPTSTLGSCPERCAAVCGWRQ

MSN = target: T4, MSN (human, UniProt P26038); test: cell array, transfected fixed HEK293 cells
T4 construct: expressed in transfected HEK293 cells
T4 sequence (P26038 2-577 limits assumed): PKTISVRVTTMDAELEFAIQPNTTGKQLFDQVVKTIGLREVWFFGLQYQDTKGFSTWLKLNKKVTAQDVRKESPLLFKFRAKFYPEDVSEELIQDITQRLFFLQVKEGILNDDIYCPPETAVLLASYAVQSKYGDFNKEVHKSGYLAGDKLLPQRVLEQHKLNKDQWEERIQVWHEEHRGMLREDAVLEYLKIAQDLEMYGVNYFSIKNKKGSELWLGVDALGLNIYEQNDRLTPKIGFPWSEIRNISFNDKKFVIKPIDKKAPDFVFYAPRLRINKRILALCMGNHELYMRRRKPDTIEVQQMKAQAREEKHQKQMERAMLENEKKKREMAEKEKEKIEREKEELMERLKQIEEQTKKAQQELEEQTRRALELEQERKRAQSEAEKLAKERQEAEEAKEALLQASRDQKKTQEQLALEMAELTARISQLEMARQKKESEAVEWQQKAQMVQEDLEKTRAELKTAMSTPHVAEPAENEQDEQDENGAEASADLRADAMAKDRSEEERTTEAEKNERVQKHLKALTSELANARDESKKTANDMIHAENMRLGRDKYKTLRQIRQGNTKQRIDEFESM
Experimental: (§1) Transfection of all plasmids was confirmed by screening for the co-encoded marker ZS green (FIG. 13A).
(§2) Primary hits (duplicate spots) were identified by analysing fluorescence (AF647 and ZsGreenl) on ImageQuant. Vectors encoding all hits were sequenced to confirm their correct identities. […] Slides were analysed as above.

PPT1 = target: T5, PPT1 (human, UniProt P50897); test: cell array, transfected fixed HEK293 cells
T5 construct: expressed in transfected HEK293 cells
T5 sequence (looked up): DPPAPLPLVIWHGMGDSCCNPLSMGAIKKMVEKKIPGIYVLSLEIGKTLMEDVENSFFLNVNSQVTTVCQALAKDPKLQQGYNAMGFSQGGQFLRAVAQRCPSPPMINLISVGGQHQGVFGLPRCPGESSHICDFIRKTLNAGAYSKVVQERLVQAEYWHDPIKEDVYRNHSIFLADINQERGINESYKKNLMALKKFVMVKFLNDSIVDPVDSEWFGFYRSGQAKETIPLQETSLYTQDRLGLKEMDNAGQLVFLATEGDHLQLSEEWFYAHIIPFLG
Experimental: as §1, §2

OSM = target: T6, OSM (human, UniProt P13725); test: cell array, transfected fixed HEK293 cells
T6 construct: expressed in transfected HEK293 cells
T6 sequence (looked up): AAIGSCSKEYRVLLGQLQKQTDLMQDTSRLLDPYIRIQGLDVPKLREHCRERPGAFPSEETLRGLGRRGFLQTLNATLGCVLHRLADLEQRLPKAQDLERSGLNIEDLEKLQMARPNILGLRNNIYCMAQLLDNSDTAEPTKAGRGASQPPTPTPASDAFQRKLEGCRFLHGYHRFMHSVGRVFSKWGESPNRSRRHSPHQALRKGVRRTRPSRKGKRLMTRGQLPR
Experimental: as §1, §2

EDN1 = target: T7, EDN1 (human, UniProt P05305); test: cell array, transfected fixed HEK293 cells
T7 construct: expressed in transfected HEK293 cells
T7 sequence (looked up): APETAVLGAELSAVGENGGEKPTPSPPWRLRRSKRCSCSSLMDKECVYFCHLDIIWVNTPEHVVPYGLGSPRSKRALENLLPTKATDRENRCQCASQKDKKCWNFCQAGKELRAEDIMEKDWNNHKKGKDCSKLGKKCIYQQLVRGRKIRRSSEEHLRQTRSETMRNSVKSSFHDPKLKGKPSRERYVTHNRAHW
Experimental: as §1, §2

ANXA6 = target: T8, ANXA6 (human, UniProt P08133); test: cell array, transfected fixed HEK293 cells
T8 construct: expressed in transfected HEK293 cells
T8 sequence (looked up): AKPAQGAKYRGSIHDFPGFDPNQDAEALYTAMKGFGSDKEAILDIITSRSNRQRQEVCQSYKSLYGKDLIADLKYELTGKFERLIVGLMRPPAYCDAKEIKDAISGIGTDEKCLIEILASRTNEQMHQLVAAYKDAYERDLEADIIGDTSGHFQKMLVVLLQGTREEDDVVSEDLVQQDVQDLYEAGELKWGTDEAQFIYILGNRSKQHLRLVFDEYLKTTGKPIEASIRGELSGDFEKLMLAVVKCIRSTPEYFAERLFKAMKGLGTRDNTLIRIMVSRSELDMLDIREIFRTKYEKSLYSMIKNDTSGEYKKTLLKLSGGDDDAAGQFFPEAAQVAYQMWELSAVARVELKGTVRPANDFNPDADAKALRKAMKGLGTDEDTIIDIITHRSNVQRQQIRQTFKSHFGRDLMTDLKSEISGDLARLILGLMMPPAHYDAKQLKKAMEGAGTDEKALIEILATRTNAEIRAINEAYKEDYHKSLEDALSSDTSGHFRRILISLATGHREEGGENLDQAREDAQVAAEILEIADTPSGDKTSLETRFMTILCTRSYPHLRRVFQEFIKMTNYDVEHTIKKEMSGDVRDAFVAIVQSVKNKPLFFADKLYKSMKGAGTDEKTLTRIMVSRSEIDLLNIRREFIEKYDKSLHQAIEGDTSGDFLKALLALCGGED
Experimental: as §1, §2

ZG16B = target: T9, ZG16B (human, UniProt Q96DA0); test: cell array, transfected fixed HEK293 cells
T9 construct: expressed in transfected HEK293 cells
T9 sequence (looked up): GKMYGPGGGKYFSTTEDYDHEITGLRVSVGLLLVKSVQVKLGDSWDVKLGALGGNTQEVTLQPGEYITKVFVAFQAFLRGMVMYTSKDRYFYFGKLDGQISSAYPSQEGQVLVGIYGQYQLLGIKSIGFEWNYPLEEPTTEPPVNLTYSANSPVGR
Experimental: as §1, §2

EDN2 = target: T10, EDN2 (human, UniProt P20800); test: cell array, transfected fixed HEK293 cells
T10 construct: expressed in transfected HEK293 cells
T10 sequence (looked up): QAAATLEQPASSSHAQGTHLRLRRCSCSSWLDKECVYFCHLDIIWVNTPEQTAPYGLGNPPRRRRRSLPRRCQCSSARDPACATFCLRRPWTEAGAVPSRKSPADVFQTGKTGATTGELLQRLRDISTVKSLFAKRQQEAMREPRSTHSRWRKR
Experimental: as §1, §2

T1 sequence (P36941 28-227 limits assumed): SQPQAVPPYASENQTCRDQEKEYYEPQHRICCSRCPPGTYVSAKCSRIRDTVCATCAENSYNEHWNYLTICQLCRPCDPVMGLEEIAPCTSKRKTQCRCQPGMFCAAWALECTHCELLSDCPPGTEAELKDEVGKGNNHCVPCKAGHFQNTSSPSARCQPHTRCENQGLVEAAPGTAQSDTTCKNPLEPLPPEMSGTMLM

binding result (hLTBR-Fc): no binding (tested: 1 µg/ml)
binding result (hTWEAK-Fc): no binding (tested: 1 µg/ml)
binding result (hDR3-Fc): no binding (tested: 1 µg/ml)
binding result (MSN): no binding (tested: 2 µg/ml)
binding result (PPT1): no binding (tested: 2 µg/ml)
binding result (OSM): no binding (tested: 2 µg/ml)
binding result (EDN1): no binding (tested: 2 µg/ml)
binding result (ANXA6): no binding (tested: 2 µg/ml)
binding result (ZG16B): no binding (tested: 2 µg/ml)
binding result (EDN2): no binding (tested: 2 µg/ml)
B1: MH1, human IgG1 (antibody, V domains shown)
VH: QVQLVQSGAEVKKPGASVKVSCKASGYTFTDYYMNWVRQAPGQGLEWMGRIYPGSGNTYYAQKFQGRVTMTRDTSTSTVYMELSSLRSEDTAVYYCARGVYYYDYWGQGTLVTVSS
VL: DIQMTQSPSSLSASVGDRVTITCRASQGIRTNLAWFQQKPGKAPKSLIYAASSLQSGVPSRFSGSGSGTDFTLTISSLQPEDFATYYCQQYNSYPRTFGGGTKVEIK
notes: IgG1; also called IgG1-MH1
